Values quoted from earlier work in publication PMC6787260.
Read-outs that look alike come from different tables or passages of the source.

Experiments:
PDK1 (Homo sapiens) [1] = biological target: PDK1 (Homo sapiens) (UniProt O15530); assay: time resolved-FRET
PDK1 (Homo sapiens) [2] = biological target: PDK1 (Homo sapiens) (UniProt O15530); assay: time resolved-FRET; remark: listed apart in the source

## PDK1 (from UniProt O15530)
PDK1 (Homo sapiens) [1]
  Kd: 11 µM
PDK1 (Homo sapiens) [2]
  Kd: 49 µM
